# ± gives the standard deviation of the averaged measurements.
# System: ATP
# Experiment: switch fluorescence ratio, 500 uM ATP over buffer (Cy3 cluster intensity, sum of 5 cycles each) (fold (ratio)); higher = stronger signal-on switching upon ATP binding; sequences stand for … in TCGTCGGCAGCGTCAGATGTGTATAAGAGACAGTTTTTTTTTTTTTTTTTTTTTTTTT…TC
# Details: aptamer strand: ATP DNA aptamer (quencher-CACCTGGGGGAGTATTGCGGAGGAAGG + anchor), 100 nM annealed; ATP concentration: 500 uM
# Outline: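 The quencher-labelled ATP aptamer, at 100 nM, was annealed to Cy3-labelled switching-strand clusters on a modified Illumina MiSeq flow-cell. The clusters were imaged in selection buffer, then after 15 min with 500 uM ATP at 22 °C, and this buffer/ATP cycle ran five times with NaOH stripping and re-annealing between runs. Per-cluster fluorescence ratios, summed target-cycle over summed buffer-cycle Cy3 intensity, were averaged per switch-domain sequence. Clusters outside 100-1000 RFU were excluded.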
# 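Also: ATP exposure 15 min at 22 °C before imaging.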
row,Sequence,switch fluorescence ratio
1,TTCGGGGGAC,1.13 ± 0.14
2,TTCGGGGGTT,1.01 ± 0.051
3,TTCGGGGTGC,2.17 ± 1.6
4,TTCGGGGTGT,1.01 ± 0.044
5,TTCGGGTGGC,1.02 ± 0.051
6,TTCGGGTGTT,0.9932 ± 0.0029
7,TTCGGTATGC,0.98 ± 0.047
8,TTCGGTGGAG,0.96 ± 0.081
9,TTCGGTGTTG,0.969 ± 0.045
10,TTCGTAAGGG,1.012 ± 0.01
11,TTCGTACGTA,1 ± 0.06
12,TTCGTACTTT,1 ± 0.043
13,TTCGTAGGGC,1.01 ± 0.055
14,TTCGTAGTGA,1.18 ± 0.025
15,TTCGTATGTT,1.03 ± 0.05
16,TTCGTATTTT,0.992 ± 0.026
17,TTCGTCAATC,2.17 ± 1.3
18,TTCGTCGCTG,0.999 ± 0.037
19,TTCGTCTACA,0.98 ± 0.021
20,TTCGTCTGCT,1.02 ± 0.024
21,TTCGTGCATC,1.06 ± 0.026
22,TTCGTGGAAT,0.977 ± 0.028
23,TTCGTTATCT,0.981 ± 0.015
24,TTCGTTATGG,1 ± 0.046
25,TTCGTTTGTC,1 ± 0.02
26,TTCGTTTGTG,0.971 ± 0.027

row,Sequence,switch fluorescence ratio
1,TTCGTTTGTT,1.34 ± 0.56
2,TTCTAAACGT,1.06 ± 0.078
3,TTCTAAATGT,0.9995 ± 0.0021
4,TTCTAATGTA,0.993 ± 0.021
5,TTCTAATTAT,0.981 ± 0.019
6,TTCTAGCCTT,1.043 ± 0.00045
7,TTCTATATAT,1.01 ± 0.035
8,TTCTATCCTA,1.02 ± 0.012
9,TTCTATGTTT,0.996 ± 0.0094
10,TTCTATTATA,0.977 ± 0.018
11,TTCTATTGGT,0.9828 ± 0.0023
12,TTCTCCCGGG,1.29 ± 0.068
13,TTCTCGAATT,1.01 ± 0.039
14,TTCTCGGATG,0.995 ± 0.015
15,TTCTCGTCAA,5.06 ± 0.96
16,TTCTCGTGGC,0.96 ± 0.029
17,TTCTCGTGTG,0.974 ± 0.035
18,TTCTCTTTTG,0.993 ± 0.031
19,TTCTGACGG,1.48 ± 0.55
20,TTCTGAGGAT,0.989 ± 0.042
21,TTCTGAGGTA,1.01 ± 0.03
22,TTCTGCTGCT,1.02 ± 0.02
23,TTCTGCTTTC,1.11 ± 0.03
24,TTCTGGGAAA,0.9997 ± 0.0057
25,TTCTGGTGAT,0.999 ± 0.021
26,TTCTGTCTGG,0.994 ± 0.021

row,Sequence,switch fluorescence ratio
1,TTCTGTCTGT,1.05 ± 0.052
2,TTCTGTGCGG,0.978 ± 0.029
3,TTCTGTTAGC,1.03 ± 0.043
4,TTCTGTTCTG,1.01 ± 0.039
5,TTCTGTTGGG,0.984 ± 0.013
6,TTCTGTTTTG,1.01 ± 0.029
7,TTCTTAAACA,1.02 ± 0.013
8,TTCTTAAATT,0.981 ± 0.019
9,TTCTTAATTT,1 ± 0.025
10,TTCTTATAGA,1.0069 ± 1.4e-05
11,TTCTTCATTT,1.22 ± 0.26
12,TTCTTGGTCT,1.009 ± 0.0067
13,TTCTTGGTG,1.02 ± 0.072
14,TTCTTGTGTT,0.993 ± 0.042
15,TTCTTTACAC,1.039 ± 0.0025
16,TTCTTTAGAG,0.987 ± 0.055
17,TTCTTTCCGT,1.06 ± 0.026
18,TTCTTTCGAG,1.026 ± 0.0045
19,TTCTTTCTGT,0.998 ± 0.0026
20,TTCTTTGACG,1.09 ± 0.077
21,TTCTTTGAGA,1.006 ± 0.0062
22,TTCTTTGGCA,1.052 ± 0.0061
23,TTCTTTTCGT,0.979 ± 0.041
24,TTGAAACTTG,0.952 ± 0.018
25,TTGAAAGGAG,1 ± 0.026
26,TTGAAATGGT,0.987 ± 0.018

row,Sequence,switch fluorescence ratio
1,TTGAAATGTG,1.01 ± 0.017
2,TTGAACACGG,1.02 ± 0.034
3,TTGAACGGGG,0.9933 ± 0.0035
4,TTGAACTACT,1.03 ± 0.016
5,TTGAACTTTG,0.978 ± 0.061
6,TTGAAGAAGT,0.9724 ± 0.0095
7,TTGAAGCAGC,1.45 ± 0.2
8,TTGAAGCGGT,1.09 ± 0.11
9,TTGAAGCGTT,0.996 ± 0.018
10,TTGAAGGGGG,0.993 ± 0.035
11,TTGAAGGGTC,0.981 ± 0.057
12,TTGAAGGTCA,1.02 ± 0.015
13,TTGAAGGTCT,1 ± 0.05
14,TTGAAGGTTA,0.99 ± 0.016
15,TTGAAGTAGT,1.03 ± 0.1
16,TTGAAGTCTA,0.992 ± 0.027
17,TTGAAGTTGT,1.01 ± 0.039
18,TTGAATCGCG,1.0115 ± 0.00023
19,TTGAATTGGG,0.999 ± 0.046
20,TTGAATTGGT,0.995 ± 0.036
21,TTGAATTTAA,0.981 ± 0.025
22,TTGACACGGG,1.11 ± 0.025
23,TTGACCCGAC,1.4 ± 0.39
24,TTGACCCGGT,1.06 ± 0.085
25,TTGACCGACT,0.973 ± 0.043
26,TTGACGAGCG,1.13 ± 0.051

row,Sequence,switch fluorescence ratio
1,TTGACGCGTC,1.02 ± 0.018
2,TTGACGTTTC,1.02 ± 0.033
3,TTGACTAGCT,1.08 ± 0.09
4,TTGACTGTAG,0.982 ± 0.013
5,TTGACTTATT,1 ± 0.043
6,TTGAGACAGG,1.0131 ± 0.00096
7,TTGAGATCCA,0.9929 ± 0.0085
8,TTGAGATCCG,0.986 ± 0.053
9,TTGAGATGGA,1.01 ± 0.0062
10,TTGAGATGTT,1.01 ± 0.025
11,TTGAGCCTCC,1.2 ± 0.15
12,TTGAGCGGTC,1.1 ± 0.022
13,TTGAGCTAGT,1 ± 0.032
14,TTGAGGCACG,1.04 ± 0.042
15,TTGAGGGCGG,1.005 ± 0.0098
16,TTGAGGGGAG,1.01 ± 0.012
17,TTGAGGGGCA,1.01 ± 0.033
18,TTGAGGGTCG,0.995 ± 0.035
19,TTGAGGTC,1 ± 0.029
20,TTGAGTATGG,0.976 ± 0.028
21,TTGAGTCCTT,1.04 ± 0.022
22,TTGAGTGTCA,0.9852 ± 0.007
23,TTGAGTTGCG,0.986 ± 0.028
24,TTGAGTTGGT,0.95 ± 0.025
25,TTGAGTTTAC,1.058 ± 0.0028
26,TTGAGTTTGC,1 ± 0.051

row,Sequence,switch fluorescence ratio
1,TTGATACATA,1.03 ± 0.017
2,TTGATAGATG,0.975 ± 0.028
3,TTGATCGGTT,1.002 ± 0.00027
4,TTGATGAAAT,0.984 ± 0.014
5,TTGATGAAGT,1.01 ± 0.031
6,TTGATGAATT,1.01 ± 0.017
7,TTGATGACGT,0.9932 ± 0.0075
8,TTGATGAGGA,0.978 ± 0.048
9,TTGATGATAT,0.986 ± 0.019
10,TTGATGCAAA,1.01 ± 0.05
11,TTGATGCCGG,1.05 ± 0.049
12,TTGATGGGAG,1.07 ± 0.12
13,TTGATGGTTG,0.964 ± 0.021
14,TTGATGTGGG,0.975 ± 0.029
15,TTGATGTGTT,1 ± 0.028
16,TTGATTAAAT,0.9575 ± 0.0089
17,TTGATTAAGC,1.03 ± 0.043
18,TTGATTAATA,0.962 ± 0.022
19,TTGATTACTT,1 ± 0.04
20,TTGATTGGCA,0.993 ± 0.025
21,TTGATTTATT,0.994 ± 0.017
22,TTGATTTTGT,1.01 ± 0.019
23,TTGATTTTTA,0.99 ± 0.044
